In patent publication US20210388087A1 one finds fold change of affinity data, which are given here for 31 molecules.

Where a chain is given by its changes, count along the chain named. In names and notes the source's numbering stands.

The chains are these.
B1: H183/L072 VH N53T (antibody, name in Kabat numbering, V domains shown)
VH: QVQLVESGGGLVQPGRSLRLSCAASGFTFSNAWMHWVRQAPGKGLEWVAQIKDKGTAYAAYYAPSVKGRFTISRDDSKNSIYLQMNSLKTEDTAVYYCHYVHYASASTVLPAFGVDAWGQGTTVTVSS
VL: DIVMTQSPLSLPVTPGEPASISCQASQELVHMNRNTYLHWYQQKPGQAPRLLIYKVSNRFPGVPDRFSGSGSGTDFTLKISRVEAEDVGVYYCAQGTSVPFTFGQGTKLEIK
B2: H183/L072 VH I51H (antibody, name in Kabat numbering, V domains shown)
VH: B1 VH with I51H, T56N
VL: B1 VL
B3: H183/L072 VH Y55T (antibody, name in Kabat numbering, V domains shown)
VH: B1 VH with T56N, Y58T
VL: B1 VL
B4: H183/L072 VH I51E (antibody, name in Kabat numbering, V domains shown)
VH: B1 VH with I51E, T56N
VL: B1 VL
B5: H183/L072 VH N53D (antibody, name in Kabat numbering, V domains shown)
VH: B1 VH with T56D
VL: B1 VL
B6: H183/L072 VH D52aE (antibody, name in Kabat numbering, V domains shown)
VH: B1 VH with D53E, T56N
VL: B1 VL
B7: H183/L072 VH W33E (antibody, name in Kabat numbering, V domains shown)
VH: B1 VH with W33E, T56N
VL: B1 VL
B8: H183/L072 VH W33D (antibody, name in Kabat numbering, V domains shown)
VH: B1 VH with W33D, T56N
VL: B1 VL
B9: H183/L072 VH K52bD (antibody, name in Kabat numbering, V domains shown)
VH: B1 VH with K54D, T56N
VL: B1 VL
B10: H183/L072 VH N31D (antibody, name in Kabat numbering, V domains shown)
VH: B1 VH with N31D, T56N
VL: B1 VL
B11: H183/L072 VH D52aH (antibody, name in Kabat numbering, V domains shown)
VH: B1 VH with D53H, T56N
VL: B1 VL
B12: H183/L072 VH G26K (antibody, name in Kabat numbering, V domains shown)
VH: B1 VH with G26K, T56N
VL: B1 VL
B13: H183/L072 VH K52D (antibody, name in Kabat numbering, V domains shown)
VH: B1 VH with K52D, T56N
VL: B1 VL
B14: H183/L072 VH F29H (antibody, name in Kabat numbering, V domains shown)
VH: B1 VH with F29H, T56N
VL: B1 VL
B15: H183/L072 VH W33H (antibody, name in Kabat numbering, V domains shown)
VH: B1 VH with W33H, T56N
VL: B1 VL
B16: H183/L072 VH K52E (antibody, name in Kabat numbering, V domains shown)
VH: B1 VH with K52E, T56N
VL: B1 VL
B17: H183/L072 VH H35D (antibody, name in Kabat numbering, V domains shown)
VH: B1 VH with H35D, T56N
VL: B1 VL
B18: H183/L072 VH T28D (antibody, name in Kabat numbering, V domains shown)
VH: B1 VH with T28D, T56N
VL: B1 VL
B19: H183/L072 VH F29K (antibody, name in Kabat numbering, V domains shown)
VH: B1 VH with F29K, T56N
VL: B1 VL
B20: H183/L072 VH H35E (antibody, name in Kabat numbering, V domains shown)
VH: B1 VH with H35E, T56N
VL: B1 VL
B21: H183/L072 VH F29D (antibody, name in Kabat numbering, V domains shown)
VH: B1 VH with F29D, T56N
VL: B1 VL
B22: H183/L072 VH N31K (antibody, name in Kabat numbering, V domains shown)
VH: B1 VH with N31K, T56N
VL: B1 VL
B23: H183/L072 VH N31E (antibody, name in Kabat numbering, V domains shown)
VH: B1 VH with N31E, T56N
VL: B1 VL
B24: H183/L072 VH F29E (antibody, name in Kabat numbering, V domains shown)
VH: B1 VH with F29E, T56N
VL: B1 VL
B25: H183/L072 VH M34D (antibody, name in Kabat numbering, V domains shown)
VH: B1 VH with M34D, T56N
VL: B1 VL
B26: H183/L072 VH N53H (antibody, name in Kabat numbering, V domains shown)
VH: B1 VH with T56H
VL: B1 VL
B27: H183/L072 VH N53E (antibody, name in Kabat numbering, V domains shown)
VH: B1 VH with T56E
VL: B1 VL
B28: H183/L072 VH M34E (antibody, name in Kabat numbering, V domains shown)
VH: B1 VH with M34E, T56N
VL: B1 VL
B29: H183/L072 VH K52H (antibody, name in Kabat numbering, V domains shown)
VH: B1 VH with K52H, T56N
VL: B1 VL
B30: H183/L072 VH A32D (antibody, name in Kabat numbering, V domains shown)
VH: B1 VH with A32D, T56N
VL: B1 VL
B31: H183/L072 VH I51D (antibody, name in Kabat numbering, V domains shown)
VH: B1 VH with I51D, T56N
VL: B1 VL

In the assay the target is Human CD137 ECD (human). The experiment in a line: single mutant vs template dBBDu183H.
Sequence of Human CD137 ECD (human) (chain, as listed by the source limits assumed): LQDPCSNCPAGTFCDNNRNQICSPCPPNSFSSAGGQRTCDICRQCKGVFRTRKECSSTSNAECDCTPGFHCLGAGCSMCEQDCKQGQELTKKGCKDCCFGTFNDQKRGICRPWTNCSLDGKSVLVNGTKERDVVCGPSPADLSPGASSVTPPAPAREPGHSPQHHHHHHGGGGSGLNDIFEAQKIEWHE
Take B1: the fold change of affinity worked out at 0 fold.
Turning to B2, the fold change of affinity is 0 fold.
In the case of B3 it was 0 fold; in that of B4, 0 fold.
For the molecule B5, the fold change of affinity amounted to 0 fold.
Next, B6: 0 fold; B7: 0 fold.
In the case of B8 it was 0 fold; in that of B9, 0 fold.
Next, B10: 0 fold.
With B11, the fold change of affinity was 0 fold.
In the case of B12, the fold change of affinity was 0 fold.
Next, B13: 0 fold.
Next, B14: 0 fold; B15: 0 fold.
With B16, the fold change of affinity stood at 0 fold.
Next, B17: 0 fold; B18: 0 fold; B19: 0 fold.
In the case of B20, the fold change of affinity is 0 fold.
In the case of B21 it was 0 fold; in that of B22, 0 fold; in that of B23, 0 fold.
In the case of B24 it was 0 fold.
In the case of B25 it was 0 fold; in that of B26, 0 fold.
Turning to B27, the fold change of affinity worked out at 0 fold.
Next, B28: 0 fold.
In the case of B29 it was 0 fold; in that of B30, 0 fold.
Next, B31: 0 fold.
